Reference: PMC5496025, “Abstracts from the 10th C1-inhibitor deficiency workshop” (Allergy, Asthma, and Clinical Immunology : Official Journal …, 2017)

B1: commercial plasma-derived C1-INH, further purified by ion-exchange chromatography (natural protein, UniProt P05155 23-500, looked up)
chain: NPNATSSSSQDPESLQDRGEGKVATTVISKMLFVEPILEVSSLPTTNSTTNSATKITANTTDEPTTQPTTEPTTQPTIQPTQPTTQLPTDSPTQPTTGSFCPGPVTLCSDLESHSTEAVLGDALVDFSLKLYHAFSAMKKVETNMAFSPFSIASLLTQVLLGAGENTKTNLESILSYPKDFTCVHQALKGFTTKGVTSVSQIFHSPDLAIRDTFVNASRTLYSSSPRVLSNNSDANLELINTWVAKNTNNKISRLLDSLPSDTRLVLLNAIYLSAKWKTTFDPKKTRMEPFHFKNSVIKVPMMNSKKYPVAHFIDQTLKAKVGQLQLSHNLSLVILVPQNLKHRLEDMEQALSPSVFKAIMEKLEMSKFQPTLLTLPRIKVTTSQDMLSIMEKLEFFDFSYDLNLCGLTEDPDLQVSAMQHQTVLELTETGVEAAAASAISVARTLLVFEVQQPFLFVLWDQQHKFPVFMGRVYDPRA
notes: source: bought: commercial plasma-derived C1-INH, further purified by ion-exchange chromatography

Tests used:
[1] = biological target: human bradykinin B2 receptor mutant #1 (found in HAE patients) (human) (UniProt P30411); assay: radioligand binding; competition binding with radiolabeled BK (3H-BK); HEK293T cells transiently transfected with human wild-type or mutant B2R
human bradykinin B2 receptor mutant #1 (found in HAE patients) (human), sequence (P30411 whole entry, stated change not applied): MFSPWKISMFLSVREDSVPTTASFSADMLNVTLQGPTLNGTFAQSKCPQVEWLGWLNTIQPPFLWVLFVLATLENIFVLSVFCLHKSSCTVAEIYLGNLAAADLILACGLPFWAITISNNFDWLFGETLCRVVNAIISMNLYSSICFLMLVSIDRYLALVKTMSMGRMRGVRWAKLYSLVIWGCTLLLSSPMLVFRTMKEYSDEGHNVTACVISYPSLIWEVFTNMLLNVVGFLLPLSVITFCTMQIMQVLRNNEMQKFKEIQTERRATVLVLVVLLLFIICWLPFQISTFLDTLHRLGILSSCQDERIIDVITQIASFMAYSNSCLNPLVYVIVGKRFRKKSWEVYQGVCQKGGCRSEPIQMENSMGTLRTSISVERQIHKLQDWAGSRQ

[2] = biological target: human bradykinin B2 receptor mutant #2 (found in HAE patients) (human) (UniProt P30411); assay: as above
human bradykinin B2 receptor mutant #2 (found in HAE patients) (human), sequence (P30411 whole entry, change not shown): as the sequence (P30411 whole entry, stated change not applied) above

[3] = biological target: T1, commercially available active FXI (UniProt P03951 19-625); assay: SDS-PAGE of enzyme/C1-INH complexes; molar equivalent quantities of active enzymes and of C1-INH; conditions: both partners purified
T1 construct: active coagulation factor XI (cleaved into disulfide-linked heavy and light chains); also called active factor XI; source: bought: commercially available
T1 sequence (P03951 19-625): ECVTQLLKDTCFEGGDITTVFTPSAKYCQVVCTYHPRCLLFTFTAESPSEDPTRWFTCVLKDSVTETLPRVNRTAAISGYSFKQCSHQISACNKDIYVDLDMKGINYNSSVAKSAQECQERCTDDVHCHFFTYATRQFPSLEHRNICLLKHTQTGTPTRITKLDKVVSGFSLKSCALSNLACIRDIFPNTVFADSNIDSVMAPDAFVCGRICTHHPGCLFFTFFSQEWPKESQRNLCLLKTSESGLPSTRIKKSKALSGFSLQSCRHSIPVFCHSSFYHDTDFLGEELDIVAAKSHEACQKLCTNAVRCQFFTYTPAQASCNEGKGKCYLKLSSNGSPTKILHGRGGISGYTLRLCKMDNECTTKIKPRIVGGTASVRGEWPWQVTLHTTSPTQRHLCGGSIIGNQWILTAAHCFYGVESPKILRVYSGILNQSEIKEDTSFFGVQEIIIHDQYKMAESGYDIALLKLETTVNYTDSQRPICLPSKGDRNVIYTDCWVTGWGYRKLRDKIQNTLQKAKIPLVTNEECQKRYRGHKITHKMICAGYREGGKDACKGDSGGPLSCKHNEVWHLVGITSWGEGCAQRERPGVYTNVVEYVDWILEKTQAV

Row | Molecule | affinity [1] [nM] | affinity [2] [nM] | binding result [3]
1 | Bradykinin (from UniProt P01042 381-389) (peptide) | 0.35 | 0.46 | –
2 | B1 | – | – | binds
